Experimental data published in paper PMC5723990, “Calmodulin regulates Cav3 T-type channels at their gating brake” (The Journal of Biological Chemistry, 2017).
Read-outs that look alike come from different tables or passages of the source. No end group written: not given here.

Legend:
[1] = Aggregation of peptides in buffers; format: physicochemical; conditions: observation during CD (PBS: 10 mM sodium phosphate pH 7.3, 137 mM NaCl) and ITC sample preparation
Experimental: CD measurements were performed using a Jasco-715 spectropolarimeter (Jasco Instruments, Easton, MD), using the following parameters: 250–190-nm range, 50 nm/min speed, with 1-s response time, 1-nm bandwidth, and 100-millidegree sensitivity at room temperature. 16–25 accumulations were gathered depending on signal quality. Recordings were made in a 1-mm cuvette, in 10 mM sodium phosphate buffer with 0.1 mM added CaCl2, and used as baseline, which was subtracted from each recording. For CaM and CaMB peptide spectra, the same solution of 10 μM CaM was scanned before stock (1 mM) peptide was added in incremental amounts before being scanned again. The resulting spectra were subtracted (e.g. CaM and CaMB peptide-CaM alone) to extract the spectrum corresponding to the change associated with adding the peptide. Every recording was an average of at least 16 accumulations and subsequently corrected for protein concentration (converted to units of mean residue ellipticity). These were smoothed and exported into ASCII format for analysis with Excel and either SOMCD or Dichroweb K2d algorithm (http://dichroweb.cryst.bbk.ac.uk)^6 ([92], [93]). […]
(§1) Heat gain or heat requirements in the sample cell (for exothermic binding or endothermic binding, respectively) correspond to the direction of the injection peaks measured in the isothermal titration calorimeter (MicroCal iTC200, Malvern Instruments, UK). […]

[2] = tested on: Ca^2+–CaM; test: Gel mobility-shift assay with CaM; format: binding, rat; conditions: molar ratio of CaMB peptide to CaM for saturating gel-mobility shift; native PAGE, 0.1 mM CaCl2, ratios 0.5–4×, incubated ≥1 h at 4 °C; three replicate experiments
Experimental: (§2) We followed protocols that we have described previously in an analysis of CaM binding with snail or human L-type calcium channel peptides in the presence of 0.1 or 0.5 mM CaCl2-containing solution ([9]).
(§3) Rat CaM was purified using phenyl-Sepharose 6 Fast-Flow (High Sub) (GE Healthcare), packed to ∼10 ml volume, by gravity flow at 4 °C. Codon-optimized CaM was cloned in pET9d, a T7 Escherichia coli expression vector. CaM was transformed into BL21 DE3 E. coli and grown at 37 °C and 200 rpm to OD of 0.4–0.6 (for Luria Broth, LB) or 0.5–0.9 (for SuperBroth, SB), at which point samples were induced by 1 mM added isopropyl β-D-1-thiogalactopyranoside and grown for another 4 (for SB) to 6 (for LB) h. Robust expression of soluble CaM was confirmed by SDS-PAGE. Cells were collected by centrifugation at ∼4000 × g, then lysed in high-salt buffer (0.1 M Tris-Cl, pH 7.5, 0.5 M NaCl, 0.5 M ammonium sulfate, 1 mM DTT) using an Avestin Emulsiflex homogenizer at 15,000–20,000 p.s.i. with jacketed water cooling, through which the cells were passed ∼3× on average. The cell lysate was clarified by centrifugation at 20,000 rpm in an SS-34 rotor (∼50,000 × g) at 4 °C for 30 min. To the cleared lysate, CaCl2 was added to a final concentration of 10 mM. The lysate was then applied to the gravity phenyl-Sepharose column equilibrated with the same high salt buffer (and 1 mM CaCl2). […]

[3] = biological target: T1, C-CaM (C-lobe of CaM, 74-aa construct) (Homo sapiens, UniProt P0DP23); test: Isothermal titration calorimetry with C-lobe of CaM; conditions: ITC, one-set-of-sites fit, 25 °C, 10 mM HEPES pH 7.0, 0.1 mM CaCl2, mean of n = 3 (Fig. 6A), read-out: Binding affinity (Ka)
T1 construct: partial CaMs: N-CaM(1–74), C-CaM(75–148); His tag; made in house; host or cells: bacteria (E. coli)
Excerpt: (§4) We have used human CaM and associated CaM mutants that we have described before ([9]), CaM(1–44) and partial CaMs: N-CaM(1–74), C-CaM(75–148), and CaMs that simulate CaM binding in the absence of calcium, by substitution of glutamate residues in the two calcium-binding sites in the N-terminal lobe (CaM12) or C-terminal lobe (CaM34), or mutation of all four calcium-binding sites (CaM1234) of CaM. CaM–GFP used for Western blotting is a construct consisting of GFP fused to the C terminus of CaM expressed in pcDNA3.1 (Cell Signaling Technology) ([83]). EGFP expression vector was obtained by subcloning EGFP from pEGFP-C1 (BD Biosciences) into the multiple cloning site of pcDNA3.1. The CaM1234 overexpression construct contained bicistronic marker mRFP (to generate a red color) ([46]) to distinguish from the channel expression with bicistronic EGFP (to generate a green color). The CaM1234 overexpression construct also containing CaM shRNA knockdown includes two short hairpin sequences described above to knock down CaM (Calm1,2,3 genes) ([46][–][48]). […]
as §1

[4] = biological target: T2, Ca^2+–CaM (wild-type calmodulin) (Rattus norvegicus, UniProt P0DP29); test: Isothermal titration calorimetry of CaMB peptides with wild-type CaM; conditions: ITC, one-set-of-sites fit, 25 °C, 10 mM HEPES pH 7.0, 0.1 mM CaCl2 (b23 says 0.5 mM CaCl2), mean of n = 3 (Fig. 6A), read-out: Binding affinity (Ka)
T2 construct: His tag; made in house; host or cells: E. coli BL21 DE3 (pET9d)
Experimental: as §2
as §3, with “average.” for “average. The cell lysate was clarified by centrifugation at 20,000 rpm in an SS-34 rotor (∼50,000 × g) at 4 °C for 30 min. To the cleared lysate, CaCl2 was added to a final concentration of 10 mM. The lysate was then applied to the gravity phenyl-Sepharose column equilibrated with the same high salt buffer (and 1 mM CaCl2).”
as §1

[5] = biological target: T3, N-CaM (N-lobe of CaM, 74-aa construct) (Homo sapiens, UniProt P0DP23); test: Isothermal titration calorimetry with N-lobe of CaM; conditions: ITC, one-set-of-sites fit, 25 °C, 10 mM HEPES pH 7.0, 0.1 mM CaCl2, mean of n = 3 (Fig. 6A), read-out: Binding affinity (Ka)
T3 construct: partial CaMs: N-CaM(1–74), C-CaM(75–148); His tag; made in house; host or cells: bacteria (E. coli)
Excerpt: as §4, §1

[6] = biological target: calmodulin (CaM), wild type, bacterially expressed (rat) (UniProt P0DP29); test: ITC; 10 mM HEPES pH 7.0, 0.1 mM CaCl2 (results: 0.5 mM CaCl2), 25 °C, one-set-of-sites model, mean of three replicates
[7] = biological target: CaM_(1234), CaM with all four Ca^2+-binding sites mutated (human) (UniProt P0DP23); test: as above
[8] = biological target: calmodulin (CaM), wild type, bacterially expressed (rat) (UniProt P0DP29); test: as above; remark: listed apart in the source
[9] = biological target: calmodulin (CaM), wild type, bacterially expressed (rat) (UniProt P0DP29); test: native gel or EMSA; gel-mobility shift of CaM with 0.5–4× molar ratios of peptide; native gels with 4 M urea, 0.1 mM CaCl2 in running buffer; incubation ≥1 h at 4 °C in 150 mM NaCl, 50 mM Tris-Cl pH 7.5, 1 mM CaCl2
[10] = biological target: C-CaM(75–148), C-terminal lobe of CaM (human) (UniProt P0DP23); test: ITC; 10 mM HEPES pH 7.0, 0.1 mM CaCl2 (results: 0.5 mM CaCl2), 25 °C, one-set-of-sites model, mean of three replicates

With YEEIFQYVCHILRKAKRRALGLYQAL [Cav3.3] the aggregation [1] was “severe aggregation issues in PBS” and the “[CaMB Peptide] for Complete shift” value [2] was greater than 4.0 x.

With YEELLKYLVYILRKAARRLAQVSRAA [Cav3.1] the aggregation [1] was “severe aggregation issues in PBS” and the “[CaMB Peptide] for Complete shift” value [2] was 1.5 x.

YEELLKYVGHIFRKVKRRSLRLYARW [Cav3.2] gave a Kd [3] of 691 nM, a Kd [4] of 187 nM and a Kd [5] of 31.1 nM.

YSELLKLVAQVYRRVKRKVIKTYYKT [LCav3] gave a Kd [4] of 12.4 nM.

With “human Cav3.1 CaMB peptide (26-mer gating brake peptide)” the Kd [6] was 36 nM, the Kd [7] was 543 nM and the Kd [8] was 42.7 nM. For the same substance, the stoichiometry N [8] was 1 and the CaMB peptide to CaM ratio required for a saturating gel-mobility shift (× (peptide to CaM ratio)) [9] was 1.5.

Work on “human Cav3.2 CaMB peptide (26-mer gating brake peptide)” yielded a Kd [6] of 196 nM, a stoichiometry N [8] of 1 and a Kd [10] of 690 nM. For the same substance, the CaMB peptide to CaM ratio required for a saturating gel-mobility shift (× (peptide to CaM ratio)) [9] was 1.5.

With “human Cav3.3 CaMB peptide (26-mer gating brake peptide)” the Kd [8] was 383 nM, the stoichiometry N [8] was 1 and the CaMB peptide to CaM ratio required for a saturating gel-mobility shift (× (peptide to CaM ratio)) [9] was greater than 4.

In the case of “snail LCav3 CaMB peptide (26-mer gating brake peptide)”, the Kd [6] is reported as 10 nM, the fold reduced affinity compared with wild-type CaM [7] is reported as 349 fold and the stoichiometry N [8] is reported as 1. For the same substance, the CaMB peptide to CaM ratio required for a saturating gel-mobility shift (× (peptide to CaM ratio)) [9] was 1.
